Biological target: C5a receptor (mouse) (UniProt P30993)
Assay: cell-based or functional assay

C5a receptor (mouse), sequence (P30993 whole entry): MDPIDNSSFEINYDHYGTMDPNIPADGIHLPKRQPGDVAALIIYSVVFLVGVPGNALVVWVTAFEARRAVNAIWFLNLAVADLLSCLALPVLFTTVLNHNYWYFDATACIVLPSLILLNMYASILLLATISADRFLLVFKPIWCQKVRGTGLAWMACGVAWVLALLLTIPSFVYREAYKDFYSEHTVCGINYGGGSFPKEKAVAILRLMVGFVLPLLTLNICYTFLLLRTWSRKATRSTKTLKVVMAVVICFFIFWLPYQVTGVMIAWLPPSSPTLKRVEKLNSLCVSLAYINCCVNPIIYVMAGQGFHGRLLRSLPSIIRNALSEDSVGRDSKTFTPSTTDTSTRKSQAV

Work on “Murine C5a (from UniProt P06684 679-755) (ligand)” yielded a 6 hr viability of C5-deficient or C3-/- T cells in serum-free medium of 25%.
